Values quoted from earlier work, collected in paper PMC7072864.

Molecular target: EAG1 CNBHD CNBHD (Mus musculus) (UniProt Q60603)

Kd: 13 µM
Substance: EAG1 PAS domain PAS (from UniProt Q60603)
